Our source for the Kd, koff and kon values is patent US20250320286A1.

This assay deals with 4U-3pE-beta-Amyloid. As to the kind of experiment: SPR; 4U-3pE-beta-Amyloid 0.6 to 4.5 nM. For orientation: In SPR one partner is held on a chip, and binding of the other changes the refractive index at the surface.

In the case of Control mAb (antibody), the Kd (as a rule, the constant that tells how readily two partners part at equilibrium) is 37.9 pM; the koff – broadly, the rate constant with which the complex falls apart – came out at 0.000156 s⁻¹; the association rate constant (kon) (commonly the rate constant with which the complex forms) turned out to be 4.11e+06 M⁻¹ s⁻¹.
